Numbering of substitutions follows the chain as printed. Numbers in names are those of the source. One block for each molecule: values may come before it. Residues, ends and D or L forms follow the SMILES beside them.
What was measured:
[1] = test system: Soluble Kell proteins (sKell); experiment: VIP cutting by sKell proteins; type: biochemical, human; settings: sf9 protein free media containing sKell
Source text: Soluble Kell proteins (sKell) proteins were used to cut vasoactive intestinal peptide (VIP).

Kell protein [2] = biological target: T1, Kell protein (Homo sapiens, UniProt P23276); experiment: Digestion of big endothelins with soluble recombinant Kell protein, HPLC analysis; type: biochemical; settings: for cleavage by wild-type Kell and Jsa Kell: N-terminal sequencing and mass spectrometry of cleaved products, yields endothelins; for Km: measured by HPLC, read-out: substrate affinity for cleavage by Kell protein
T1 construct: placing the cDNA that encodes the extracellular portion of Kell in a baculovirus transfer vector pAcGP67-A; made in house; host or cells: sf9 insect cells, baculovirus (pAcGP67A), protein-containing culture medium
T1 sequence (P23276 68-732 limits assumed): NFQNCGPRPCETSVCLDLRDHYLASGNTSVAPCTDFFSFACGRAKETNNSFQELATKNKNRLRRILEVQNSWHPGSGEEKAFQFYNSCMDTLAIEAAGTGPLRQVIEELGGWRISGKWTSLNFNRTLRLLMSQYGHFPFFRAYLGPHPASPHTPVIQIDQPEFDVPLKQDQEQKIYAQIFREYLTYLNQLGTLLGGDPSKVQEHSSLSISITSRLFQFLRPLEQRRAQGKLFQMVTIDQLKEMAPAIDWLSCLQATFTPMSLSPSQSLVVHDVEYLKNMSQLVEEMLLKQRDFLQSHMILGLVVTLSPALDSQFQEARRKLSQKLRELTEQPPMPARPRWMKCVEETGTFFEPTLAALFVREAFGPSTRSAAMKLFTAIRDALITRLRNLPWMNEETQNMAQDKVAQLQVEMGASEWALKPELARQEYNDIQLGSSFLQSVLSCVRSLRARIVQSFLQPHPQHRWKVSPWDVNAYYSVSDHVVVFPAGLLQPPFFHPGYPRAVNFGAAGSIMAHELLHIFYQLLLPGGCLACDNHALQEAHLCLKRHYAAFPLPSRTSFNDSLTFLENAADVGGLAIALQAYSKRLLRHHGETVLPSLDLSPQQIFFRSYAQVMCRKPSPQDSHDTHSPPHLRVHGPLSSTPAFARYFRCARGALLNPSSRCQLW
Experimental: Digestion of Big Endothelin-1,-2, and -3 (Big ET-1, -2, and -3) With Soluble Recombinant Proteins
Enzyme reaction mixture was made by mixing 8-16 μl of 1 mg/ml big ET-1 (1-38), big ET-2 (1-37 or 1-38) and big ET-3 (1-41) (American Peptide Co., Sunnyvale, Calif. and Sigma, St. Louis, Mo. and Peptide Institute, Inc., Osaka, Japan), 10 μl 1 mM ZnCl2 final concentration 86 μM and 70 μl recombinant protein containing media. The mixture was incubated at 37° C. for different time periods. Twenty to 25 aliquots of this incubation mix was assayed by reverse HPLC. The conditions of the analysis were:
Solvent A: 0.1% TFA/2,5% 1-Propanol (PrOH)/H2 O (500 μl
Trifluoroacetic acid+1 L H2 O+25 ml 1-PrOH).
Solvent B; 0.09% TFA/2.5% 1-PrOH/90% Acetonitrile/H2 O (450 μl
TFA+1 L Acetonitrile+100 ml H2 O+25 ml 1-PrOH).
Gradient condition was 1-61% A In B over 0-60 minutes at a flow rate of 0.15 ml/min. The column used was reverse phase C18 column (2×150 mm, Vydac).

Kell protein [3] = biological target: T1, Kell protein; experiment: Digestion of big endothelins with soluble recombinant Kell protein, EIA assay; type: biochemical; settings: measured by EIA; 15 min; read-out: substrate affinity for cleavage by Kell protein
Experimental: Enzyme reaction mix was made by mixing various amounts of 10 μM big ET's, 20 μl of 10 Kell assay buffer (0.5 M HEPES, 0.5 mM ZnCl2 and 1.5 NaCl containing 4% (v/v) of supernatant boiled BSA) and various amounts of soluble protein containing media (ranging from 0.0313 μl to 4 μl) and H2 O to make a total volume of 200 μl. The enzyme reaction was incubated at 37° C. for 15 min. At the end of the incubation time, 100 μl of 5 mM EDTA was added to terminate the reaction. Various amounts of the sample up to 100 μl were used in Enzyme-linked Immunoassay using Endothelin-1EIA kit (Cayman Chemical).

Kell protein [4] = biological target: T1, Kell protein; experiment: Inhibition of Kell proteolytic activity by phosphoramidon; type: biochemical; settings: Kell protease; read-out: Concentration which gives 50% of inhibition
Kell protein [5] = experiment: as above; type: biochemical, human
[6] = test system: hematopoiesis cell culture system; experiment: Hematopoiesis cell culture system grown on methyl cellulose plates; type: cell-based; settings: preliminary studies
Source text: Meanwhile, the concentration of phosphoramidon needed to inhibit the proteolytic cleavage of big-endothelins by ECE-1 and Kell protein are different. While it is not intended to be bound by theory, it is possible that Kell participates in the proteolytic processing of growth factors or cytokines during hematopoiesis.

[7] = biological target: Big Endothelin-1 (1-38) (Homo sapiens)
[8] = biological target: Big Endothelin-3 (1-41) (Homo sapiens)
Kell protein [9] = biological target: T2, Kell protein (Homo sapiens, UniProt P23276); experiment: Bradykinin cleavage by Kell protein; type: biochemical
T2 sequence (P23276 1-732): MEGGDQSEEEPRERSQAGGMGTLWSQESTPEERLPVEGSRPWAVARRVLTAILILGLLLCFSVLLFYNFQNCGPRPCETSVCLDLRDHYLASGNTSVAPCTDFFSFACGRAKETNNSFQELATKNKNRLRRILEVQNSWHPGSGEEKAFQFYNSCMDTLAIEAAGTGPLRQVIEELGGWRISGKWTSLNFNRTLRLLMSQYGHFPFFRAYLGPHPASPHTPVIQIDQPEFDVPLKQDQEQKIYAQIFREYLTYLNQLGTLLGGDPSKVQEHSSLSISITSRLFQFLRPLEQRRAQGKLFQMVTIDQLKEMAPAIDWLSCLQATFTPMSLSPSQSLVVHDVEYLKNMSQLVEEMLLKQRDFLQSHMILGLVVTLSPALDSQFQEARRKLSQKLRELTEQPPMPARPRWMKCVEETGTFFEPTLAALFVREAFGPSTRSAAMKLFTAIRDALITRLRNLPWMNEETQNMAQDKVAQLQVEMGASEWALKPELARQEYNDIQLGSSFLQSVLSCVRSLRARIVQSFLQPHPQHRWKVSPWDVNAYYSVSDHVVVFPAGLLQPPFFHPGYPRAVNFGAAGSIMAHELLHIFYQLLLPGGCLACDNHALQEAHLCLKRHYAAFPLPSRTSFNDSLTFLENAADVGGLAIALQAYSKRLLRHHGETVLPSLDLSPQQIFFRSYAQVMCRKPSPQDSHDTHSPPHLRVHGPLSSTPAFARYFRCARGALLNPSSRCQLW

Kell protease = biological target: T3, Kell protease (Homo sapiens, UniProt P23276); experiment: pH optimum of Kell protease; type: biochemical
T3 sequence (P23276 1-732): T2 sequence (P23276 1-732)

Molecule: VIP: vasoactive intestinal peptide (1-28), a vasodilator (HSDAVFTDNYTRLRKQMAVKKYLNSILN)
cleavage of VIP by soluble Kell [1]: cleaves
cleavage of VIP by soluble Kell ([1]; listed as vasoactive intestinal peptide (VIP)): cleaved

Molecule: big-endothelin-3: inactive precursor of endothelin-3, substrate of Kell protein (CTCFTYKDKECVYYCHLDIIWVNTPEQTVPYGLSNYRGSFR)
cleavage by wild-type Kell and Jsa Kell (Kell protein [2]): cleaved
Km (Kell protein [3]): < 2000 nM

IC50 (Kell protein [4]): 50 to 100 µM
Molecule: CC(C)C[C@H](NP(=O)(O)O[C@@H]1O[C@@H](C)[C@H](O)[C@@H](O)[C@H]1O)C(=O)N[C@@H](Cc1c[nH]c2ccccc12)C(=O)O [Phosphoramidon]
inhibition of Kell enzymatic activity (Kell protein [5]): inhibited
effect on cell growth ([6]; higher concentration of phosphoramidon (50-100 μM)): inhibited cell growth
effect on cell growth ([6]; low concentration of phosphoramidon (3.5-7.0 μM)): increased cell growth

Molecule: big-endothelin-2: inactive precursor of endothelin-2, substrate of Kell protein (CSCSSWLDKECVYFCHLDIIWVNTPEQTAPYGEGNPP)
cleavage by wild-type Kell and Jsa Kell (Kell protein [2]): cleaved
Km (Kell protein [2]): ~20 µM

cleavage of big endothelin-1; substrate affinity (HPLC) [7]: 80 µM
cleavage of big endothelin-2; substrate affinity (HPLC) (Big Endothelin-2 (1-37)): 20 µM
cleavage of big endothelin-3; substrate affinity (EIA) [8]: < 2 µM
Molecule: soluble wild type Kell (secreted form of wild-type Kell protein, extracellular portion, expressed in sf9 cells) (from UniProt P23276) (enzyme)

Molecule: big-endothelin-1: inactive 38 amino acid precursor of endothelin-1, substrate of Kell protein (CSCSSLMDKECVYFCHLDIIWVNTPEHVVPYGLGSPRS)
cleavage by wild-type Kell and Jsa Kell (Kell protein [2]): cleaved
Km (Kell protein [2]): ~80 µM

Molecule: NC(N)=NCCC[C@H](NC(=O)[C@H](Cc1ccccc1)NC(=O)[C@@H]1CCCN1C(=O)[C@H](CO)NC(=O)[C@H](Cc1ccccc1)NC(=O)CNC(=O)[C@@H]1CCCN1C(=O)[C@@H]1CCCN1C(=O)[C@@H](N)CCCN=C(N)N)C(=O)O [bradykinin] (H-RPPGFSPFR-OH)
cleavage by Kell protein (Kell protein [9]): does not cleave

pH optimum (Kell protease): 6.0-6.5
B1: Kell protease: secreted recombinant wild-type human Kell blood group protein expressed in sf9 cells (protein)
chain: T1 sequence (P23276 68-732 limits assumed)

B2: Jsa: secreted form of Js^a Kell phenotype (L597P) (protein)
chain: T1 sequence (P23276 68-732 limits assumed) with L530P
cleavage of VIP by soluble Kell [1]: cleaves more than wild type Kell

— patent US6063592A, “Kell protein proteolytic activity” (New York Blood Center, Inc., priority 1998, dated 2000)
